For 13 sequences, protein production results are on record in a protein production outcome set (Wang et al. 2014).

The series is described as follows: label from the status in PepcDB records.

With “MPARPGAARERIRSTAAPAVGEKVLNALRDLPAGMIYTLGAKPTVLRGLALAIEKRVKGIDWSPDGATLFAEVMDGSRHHEVRLEANGGFLTPSCDCPLWRPTGHCPHVIAALAVLKKGLVHQAITSLRLDSDYLAEVSGWLSGVEAAQPTAPAVPRLVVERGADGIQARIWLGEHPVSIHDQALPRTVRDFLWTLLNPRESGFIIERYLEAFGDDAPMALRQDDNEIPLRFDRGRVHGTLTLLEQVRGMVIARKGLEDGHPIPDTCFAAYRYYFDIPAGAVRVIDSFEGWDLWNTINYEAAEWSLDTGVSVERNSRTISLPADAFNAIGLTVTEKGLPTILERIRFYGAGGPGEPARITHNYRLRVADMNDTTALLLAEGVYGDAAIPLSAGAFSFFTSRGRSTASVPLRTKKRSSAVIAGCFAALDCVTRAELERTIRHALAGDDFLKRTVKSEAKRIITAFAAACETRETTLLAADGAWLISVAEPKVEAQLLEIPYRLFGAEIFGSSDLAGAMTVNRDALFRQFPALHNRLAEAGFDLVLQDRPVEAVTLDVTLDATRSTLDWFELRPEIRCGTGELTEQEIAEAMASGGVFRRGDSFLLINEESSRILAMLYPEAGVKKRRKAEVVRIPRLQILDWLVLRHHGVSVRLSPEDERIFASLATFEEIPSSPLPERLQATLRHYQVDAFHWLAFLYTHRFGACLADDMGLGKTIQAISLLAALHEGTLPSRVPEPRPHLIVVPPSLLFNWENELARFYPAFTVLTYRGTGRSADFTGVDIVLTSYGIIPRDIGILAEIPFHCIVFDEAQAVKNIQADTTGACRRLRGAFTLCLTGTPVENHLGEYFSVMDLAVPGLLGSYEEFRRQAGNAAAPFLETLVRRTRPFVLRRSKQMIAAELPPKIETDIYLELTPRQKALYTRTVEEVRETVLEAWRGKSPGQARIIALTAILRLRQLCLSPRLLIADSREPSPKVEFLVEQLEELFTEGHSVLVFSQFTSFLDIVEGELSRRGVHYYRLDGSTPVPERKRLVTAFQKGDEPSVFLLSLKAGGKGLNLTRATYVFHLDPWWNPAVENQASDRAHRIGQTRQVTITRLVMRHTIEEKMMELKKRKLKLYHALLEENSAGDGGGISREDFEFLLG”, the protein production entry is given as “failed”.

Turning to “MPARQSFTDLKNLVLCDIGNTRIHFAQNYQLFSSAKEDLKRLGIQKEIFYISVNEENEKALLNCYPNAKNIAGFFHLETDYVGLGIDRQMACLAVNNGVVVDAGSAITIDLIKEGKHLGGCILPGLAQYIHAYKKSAKILEQPFKALDSLEVLPKSTRDAVNYGMVLSVIACIQHLAKNQKIYLCGGDAKYLSAFLPHSVCKERLVFDGMEIALKKAGILECK”, the protein production entry was “not failed”.

For “MPATAGRVRMPANNRVHSSAALQTHGIWQSAIGYDPYAPTSKEEPKTTQQKTEDPENSYASFQGLLALARITGSNNDEARGSCKKCGRVGHLTFQCRNFLSTKEDKEKDPGAIEAAVLSGLEKIRRGVGKGEVEEVSSEEEEESESSDSDVDSEMERIIAERFGKKKGGSSVKKTSSVRKKKKRVSDESDSDSDSGDRKRRRRSMKKRSSHKRRSLSESEDEEEGRSKRRKERRGRKRDEDDSDESEDEDDRRVKRKSRKEKRRRRSRRNHSDDSDSESSEDDRRQKRRNKVAASSDSEANVSGDDVSRVGRGSSKRSEKKSRKRHHRKERE”, the protein production result is reported as “failed”.

With “MPCDFPGCGRIFSNRQYLNHHKKYQHIHQKSFSCPEPACGKSFNFKKHLKEHMKLHSDTRDYICEF”, the protein production entry is given as “not failed”.

“MPCPPNVSMMLGKEGPAADSERVTLWRDHHLSHTHAVLWTVILVATVGDILLTMTGLTVGLQEGNAVVSTMLAEFGLAGLWLVKFGAMLWLVAGWRLLSERNATVFLALFAVVTLAVVAYNSVTILQYRGVITAVAGI”: the protein production result is “failed”.

On to “MPDACFSDGDPIVLVVLGYVVVVVAVLGGYALTGGHMGALYQPAELIIIGGAAVGAFISSNSGKAIKATMKAMPSLLKGSKYKKELYLDVMALLYVLLSKARREGILFLEKEIADPASSSVFSQYPRILADAKMMEFLTDYLRMMVNGNMNAFEIEALMDHEIETVRHEAEIPAHALSRVGDGLPAFGIVAAVMGVVHALASADLPPAELGALIANAMVGTFLGILLAYGFVSPLASRVEHQVSESIKMYECIKVTLLASLNGYAPLVAVEFGRKVLYSTVRPSFLELDDHVREVKSLT”, for which the protein production result is “failed”.

As for “MPDADVNDFELVDVDQKAADKAIKDLGVKATIDEVCTVGEEGYVVTATDKEGYGGDIKITVGITADGTINGISILSISETAGLGMRATEPAFYEQYQGKQAEKFVVSKDGGDGEPIDALSGATITSRAVTGAVNAALGYYQNAFLEHHHHHH”, the protein production result is “not failed”.

For “MPDFVNLWIYLSSTPLFGLTATLTVYLSAHAMYLRLGQVPLANPVLWSMVVLAAGLLAFGVPYPTYFAGAQFIHFLLGPAVVALAWPLWMRRAELRRRWARLLWAALFGGAVACASAVLLGWAVGLPRDIILSLAPKSVTAPVAMGLSETLGGIPALSAVFAALTGLVGALTGKYLFDLLGAVRGRQDWADRGFALGTVSHGIGAARAIQVNADAGAYAGLALGLQVILASLLIPVAFRLAAGLGGS”, the protein production entry is recorded as “failed”.

With “MPDIDAGPRCRDAGSRMFRLAHLTDPHVGPLPRPRLRQLLSKRAAGYVNWRRGRSRHHDMDLLGALIADLHGQGVDHVACTGDLCNLGLPDEWESARVFLEALGPADRVSFVPGNHDAYVRGSLEGLLAACGGWTEADDGQIRLFPYLRRRGPLALVGLSSAIPTKPFVASGRLGPVQIEAAERVLRDLATAPDRPCRVVMIHHPPHPGGAASGRELKDAAAFAAMIGRAGADLILHGHNHVGTVARITGPDGRPVPVVGAPSASARTLLTNRRASYYLYTVTPGENGFQIAVTERGLDEAGGIGELSGFDIETPPADRIGLVHRRRQRHT”, the protein production entry is listed as “failed”.

With “MPDIFQQEARGWLRCGAPPFAGAVAGLTTKHGGESKGPFASLNMGLHVGDDRTDVVNNRRRLAEWLAFPLERWVCCEQVHGADIQKVTKSDRGNGAQDFATAVPGVDGLYTDEAGVLLALCFADCVPIYFVAPSAGLVGLAHAGWRGTAGGIAGHMVWLWQTREHIAPSDIYVAIGPAIGPCCYTVDDRVVDSLRPTLPPESPLPWRETSPGQYALDLKEANRLQLLAAGVPNSHIYVSERCTSCEEALFFSHRRDRGTTGRMLAFIGRREEWT”, the protein production result is recorded as “not failed”.

Consider “MPDIVNTEQAQAWNGPEGAHWARNQDRWNAVNEGFDEPLLDAAGITGEDRVLDLGCGSGQTTRRAALRAPRGHVLGLDLSGPMLAEARSRAEREGVANVSFAQGDAQVHPFGAGAFDAAVSRYGVMFFADPVAAFGNVGRALRPGGRLAFVCPADAALNGWVTAMASLREVLPVGDFGQPGLPGMFSLAAPDRIGDVLTAAGFAGIDVNQVQAHGTWGRDAEDAAEFLLGTGPGRHLMERADPTARARARGILTDHLRTHEAADGTVRLLSTSWLTTATRPAATA”, for which the protein production entry is “failed”.

With “MPDMPPTETNAIQDRLPRTTNSVEDTMALGARIAQGLSPGAVVALYGDLGTGKTHFVKGVAQGLGLPPAEVRSPTFTILAVHDDGDRPLYHFDAYRVQTPDEFVELGFETYVHGDGLTCIEWAGRVADLLPADTVPLQFHHVAPSTRRITLGAPDSSSSEDDR”, the protein production result is recorded as “failed”.

For “MPELSVILAGFGDALAPINLLFILFGVALGQFVGAVPGIGPVMATAIAIPFTFGMDPLTGIAFLVGVNKGGLVGGAIPAVLLNTPGTPDAAATALDGYPLAKQGKPLKATKMALFSSITGDTFSDIVLITVSAPMAILALRMGPVEVLGLMLLAFAVIAGLMGQSLVKGVVAIALGLMAAMVGTDPEHGSPRLIFGNYELYDGLPLASVAIGMLAISELLKRLSETRGTVRPAITLPRNQPRADRSVSWAEYWGCRFTMLRGAVIGTILGALPGIGSTAAAFMSYASARQASKEPESFGKGSLHGIAASESANSSVMGANMIPMLTLGIPGSVSAALIISAFMIHGIQPGPFLFSQQGQLVYGLFGAMIIANLINLWVGQLGLRFWVRVVSAPEPFIFASALLMCFVGVALASGGLFGIGVMLVFALLAYVMSAFGISVVVFIIAFFLGPRLEISLSQTLALLNGQPQKLLDYPFALVLMALALVTAVALARRRDTESETR”, the protein production result is on record as “failed”.
